Measured values: patent US20250250355A1 (BIOSION, published 2025)
Where two headings read alike, the source gives them in different places.

Legend:
[1] = target: T1, full length human SIRPγ endogenously expressed on Jurkat cells (human, UniProt Q9P1W8 29-387); experiment: cell based binding FACS on Jurkat cells (endogenous human SIRPγ), MFI; plateau at MFI about 330
T1 construct: whole, on cells; also called human SIRPγ expressed on Jurkat cells

[2] = target: T2, full length human SIRPβ on cell membranes (HEK293-SIRPβ cells; 293F cells expressing human SIRPβ) (human, UniProt O00241 30-398); experiment: cell based binding FACS on 293F cells expressing human SIRPβ, MFI
T2 construct: whole, on cells; also called cell surface human SIRPβ

human SIRPα-his protein = human SIRPα-his protein (human, UniProt P78324 31-370); experiment: competitive ELISA on coated human SIRPα-his; blocked ligand: biotin-labeled human CD47-his, OD(450-630)
[3] = target: T3, recombinant human SIRPα-Fc protein (human, biotin-labeled (sites not given)); experiment: capture ELISA, antibody captured on anti-mouse IgG F(ab')2, biotin-labeled human SIRPα-Fc in solution, OD(450-630)
T3 construct: also called biotin-labeled human SIRPα-Fc protein

[4] = target: T4, human SIRPα-V8-his protein (human, UniProt P78324 31-370, limits assumed); experiment: indirect ELISA on coated human SIRPα-V8-his, OD(450-630)
[5] = target: T1, full length human SIRPγ endogenously …; experiment: cell based binding FACS on Jurkat cells (endogenous human SIRPγ), MFI; curve not visible in the scan
[6] = target: T5, full length human SIRPα on cell membranes (HEK293-SIRPα cells; 293F-SIRPα cells) (human, UniProt P78324 31-504); experiment: cell based binding FACS on 293F cells expressing human SIRPα, MFI
T5 construct: whole, on cells; also called cell surface human SIRPα; cell surface SIRPα

[7] = target: T6, human SIRPα protein (soluble, used on 293F-CD47 cells) (human, UniProt P78324 31-370, limits assumed); experiment: cell based blocking FACS on 293F-CD47 cells; soluble human SIRPα protein blocked from binding cell surface human CD47, MFI
[8] = target: human SIRPα-isoform 2-his protein (human); experiment: indirect ELISA on coated human SIRPα-isoform 2-his, OD(450-630)
[9] = target: human SIRPα-isoform 2-his protein (human); experiment: indirect ELISA on coated human SIRPα-isoform 2-his, OD(450-630); plateau at OD about 1.0
[10] = target: T5, full length human SIRPα on cell …; experiment: cell based blocking FACS on 293F-SIRPα cells; blocked ligand: human CD47 protein (CD47-Fc), MFI
[11] = target: T5, full length human SIRPα on cell …; experiment: as above; remark: listed apart in the source
[12] = target: T6, human SIRPα protein (soluble, used on …); experiment: cell based blocking FACS on 293F-CD47 cells; soluble human SIRPα protein blocked from binding cell surface human CD47, MFI; remark: listed apart in the source
[13] = target: T2, full length human SIRPβ on cell …; experiment: cell based binding FACS on HEK293-SIRPβ cells, MFI; curve not visible in the scan
[14] = target: T2, full length human SIRPβ on cell …; experiment: cell based binding FACS on 293F cells expressing human SIRPβ, MFI; remark: listed apart in the source
[15] = target: human SIRPα-isoform 2-his protein (human); experiment: indirect ELISA on coated human SIRPα-isoform 2-his, OD(450-630); remark: listed apart in the source
mouse SIRPα-his = target: T7, mouse SIRPα-his (mouse, UniProt P97797 35-363, limits assumed); experiment: indirect ELISA on coated mouse SIRPα-his, OD(450-630)
T7 chain: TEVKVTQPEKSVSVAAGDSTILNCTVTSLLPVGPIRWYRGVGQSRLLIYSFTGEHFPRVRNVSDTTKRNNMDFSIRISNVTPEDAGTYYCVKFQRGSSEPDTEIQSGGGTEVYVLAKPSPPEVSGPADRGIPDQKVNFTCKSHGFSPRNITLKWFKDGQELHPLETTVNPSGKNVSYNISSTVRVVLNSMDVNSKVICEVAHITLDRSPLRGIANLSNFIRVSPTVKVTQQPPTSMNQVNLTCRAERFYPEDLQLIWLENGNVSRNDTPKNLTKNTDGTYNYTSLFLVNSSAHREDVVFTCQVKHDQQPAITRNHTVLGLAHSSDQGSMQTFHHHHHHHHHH

[16] = target: T5, full length human SIRPα on cell …; experiment: cell based binding FACS on HEK293-SIRPα cells, MFI; curve not visible in the scan
[17] = target: T5, full length human SIRPα on cell …; experiment: cell based binding FACS on 293F cells expressing human SIRPα, MFI; remark: listed apart in the source
[18] = target: T4, human SIRPα-V8-his protein; experiment: indirect ELISA on coated human SIRPα-V8-his, OD(450-630); curve not visible in the scan
[19] = target: T1, full length human SIRPγ endogenously …; experiment: cell based binding FACS on Jurkat cells (endogenous human SIRPγ), MFI; plateau at MFI about 325

B1: KWAR23 (antibody, human IgG4 S228P, kappa, V domains shown)
VH: EVQLQQSGAELVKPGASVKLSCTASGFNIKDYYIHWVQQRTEQGLEWIGRIDPEDGETKYAPKFQDKATITADTSSNTAYLHLSSLTSEDTAVYYCARWGAYWGQGTLVTVSA
VL: QIVLTQSPAIMSASPGEKVTLTCSASSSVSSSYLYWYQQKPGSSPKLWIYSTSNLASGVPARFSGSGSGTSYSLTISSMEAEDAASYFCHQWSSYPRTFGAGTKLELKR
notes: also called BM
Question: Which results are given for B1?
Answer: EC50 [1]: 0.00724 nM; EC50 [2]: 0.156 nM; IC50 (human SIRPα-his protein): 2 nM; EC50 [3]: 0.0774 nM; EC50 [4]: 0.255 nM; EC50 [5]: 0.0102 nM; EC50 [6]: 0.309 nM; IC50 [7]: 0.25 nM; EC50 [8]: 0.409 nM; EC50 [9]: 0.436 nM; IC50 [10]: 0.731 nM; IC50 [11]: 0.753 nM; IC50 [12]: 0.241 nM; EC50 [13]: 0.272 nM; EC50 [14]: 0.164 nM; EC50 [15]: 0.307 nM; binding result (mouse SIRPα-his): no binding (tested: ~67 nM); EC50 [16]: 0.383 nM; EC50 [17]: 0.307 nM; EC50 [18]: 0.339 nM; EC50 [19]: 0.00761 nM
